Reference: patent publication US20260250371A1 (ULTRAGENYX PHARMACEUTICAL, published 2026)
Numbering of substitutions follows the chain as printed. Numbers in names are those of the source. Where “and” joins values, the source holds several entries; their conditions need not be identical. Identical values can stand only once.

T1: recombinant human FGF23 (R179Q) (human, UniProt Q9GZV9 25-251)
T1 construct: also called rhFGF23(R179Q); hFGF23(R179Q)
T1 sequence (looked up): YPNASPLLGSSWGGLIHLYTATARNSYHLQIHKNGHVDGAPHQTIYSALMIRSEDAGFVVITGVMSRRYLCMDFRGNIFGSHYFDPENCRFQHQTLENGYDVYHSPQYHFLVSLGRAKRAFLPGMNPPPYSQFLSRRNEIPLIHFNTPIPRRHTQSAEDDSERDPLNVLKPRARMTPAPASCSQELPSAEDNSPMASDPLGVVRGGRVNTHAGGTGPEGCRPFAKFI

T2: cynomolgus monkey (Macaca fascicularis) FGF23 (R179Q) (cynomolgus monkey (Macaca fascicularis), UniProt Q9GZV9 25-251 (human entry), limits assumed)
T2 construct: also called cynoFGF23; cynoFGF23(R179Q)
T2 chain: T1 sequence (looked up) with D85N, Q92R, Q94W, Y108H, I149R, M195V, G219A, A224P

B1: UGX201 (antibody, human IgG1, kappa, V domains shown)
VH: QVQLVQSGAEVKKPGASVKVSCKASGYTFTNHYMHWVRQAPGQGLEWMGIINPISGSTENAQKFQGRVTMTRDTSTSTVYMELSSLRSEDTAVYYCARDIVDAFDFWGQGTMVTVSS
VL: AIQLTQSPSSLSASVGDRVTITCRASQGISSALVWYQQKPGKAPKLLIYDASSLESGVPSRFSGSGSGTDFTLTISSLQPEDFATYYCQQFFDYFTFGPGTKVDIKR
notes: also called HC:S59E, LC:N92F; S59E/N92F
B2: UGX202 (antibody, human IgG1, kappa, V domains shown)
VH: B1 VH
VL: B1 VL with F92Y
notes: also called HC:S59E, LC:N92Y; S59E/N92Y
B3: UGX203 (antibody, human IgG1, kappa, V domains shown)
VH: B1 VH
VL: B1 VL with S52D, F92N
notes: also called HC:S59E, LC:S52D; S59E/S52D
B4: UGX206 (antibody, human IgG1, kappa, V domains shown)
VH: B1 VH
VL: B1 VL with F92N, Y94E
notes: also called HC:S59E, LC:Y94E; S59E/Y94E
B5: UGX204 (antibody, human IgG1, kappa, V domains shown)
VH: B1 VH
VL: B1 VL with S52E, F92N
notes: also called HC:S59E, LC:S52E; S59E/S52E
B6: UGX205 (antibody, human IgG1, kappa, V domains shown)
VH: B1 VH
VL: B1 VL with F92N, Y94D
notes: also called HC:S59E, LC:Y94D; S59E/Y94D

The binders below were run against T1, recombinant human FGF23 (R179Q) (assay: SPR, antibody captured on hIgG chip, human FGF23 analyte).

First: B1
Second: B2
The “KD ratio (variant antibody KD/burosumab KD)” value (“KD ratio” below) of the first is higher: 4 for the first, 3 for the second.

Going from B3 to B4, the “KD ratio” value rises from 2 to 3.

First: B5
Second: B6
The “KD ratio” value of the first is lower: 2 for the first, 5 for the second.

B1 and B2 are within 1.5-fold of each other in Kd: 5.17 pM for the first, 7.59 pM for the second.

B3 and B4 are within 1.5-fold of each other in Kd: 11.5 pM for the first, 7.87 pM for the second.

First: B5
Second: B6
The Kd of the first is 3.3-fold higher: 13.3 pM for the first, 4.07 pM for the second.

These binders were tested against T1, recombinant human FGF23 (R179Q) (assay: SPR, antibody captured on hIgG chip, rhFGF23(R179Q) analyte).

B1 and B2 are within 1.5-fold of each other in Kd: 5.17 pM for the first, 7.59 pM for the second.

B3 and B4 are within 1.5-fold of each other in Kd: 11.5 pM for the first, 7.87 pM for the second.

Compared with B5, B6 is 3.3-fold lower in Kd: 13.3 pM for the first, 4.07 pM for the second. The second binds more tightly here.

Going from B1 to B2, the “Ratio (variant antibody KD/burosumab KD)” value falls from 4 to 3.

First: B3
Second: B4
The “Ratio (variant antibody KD/burosumab KD)” value of the first is lower: 2 for the first, 3 for the second.

Going from B5 to B6, the “Ratio (variant antibody KD/burosumab KD)” value rises from 2 to 5.

Going from B1 to B2, the “SA (surface activity)” value rises from 83.4% to 91.6%.

Going from B3 to B4, the “SA (surface activity)” value rises from 81.4% to 108%.

Compared with B5, B6 is higher in “SA (surface activity)” value: 90.4% for the first, 93.9% for the second.

First: B1
Second: B2
The koff of the first is 1.7-fold lower: 5.81e-05 s⁻¹ for the first, 9.8e-05 s⁻¹ for the second.

Compared with B3, B4 is 2.9-fold lower in koff: 0.000145 s⁻¹ for the first, 4.92e-05 s⁻¹ for the second.

Compared with B5, B6 is 3-fold lower in koff: 0.000186 s⁻¹ for the first, 6.25e-05 s⁻¹ for the second.

B1 and B2 are within 1.5-fold of each other in kon: 1.12e+07 M⁻¹ s⁻¹ for the first, 1.29e+07 M⁻¹ s⁻¹ for the second.

Going from B3 to B4, the kon falls from 1.26e+07 M⁻¹ s⁻¹ to 6.25e+06 M⁻¹ s⁻¹ (2-fold).

B5 and B6 are within 1.5-fold of each other in kon: 1.4e+07 M⁻¹ s⁻¹ for the first, 1.53e+07 M⁻¹ s⁻¹ for the second.

Target: T1, recombinant human FGF23 (R179Q)
Experiment: as above
Remark: another data set of the same source

With B1 the Kd was 4.52 pM and 6.32 pM and 5.17 pM.
B2 was tested, and the Kd was 7.53 pM and 7.59 pM and 8.07 pM.
B3 was tested, and the Kd was 11.3 pM and 12.4 pM and 11.5 pM.
For B4, the Kd was 6.62 pM and 7.87 pM and 10.9 pM.
B5 was tested, and the Kd was 13.3 pM and 14 pM and 18.3 pM.

B1 was tested, and the koff was 3.65e-05 s⁻¹ and 6.31e-05 s⁻¹ and 5.81e-05 s⁻¹.
B2 was tested, and the koff was 8.91e-05 s⁻¹ and 9.8e-05 s⁻¹ and 9.45e-05 s⁻¹.
B3 was tested, and the koff was 0.000145 s⁻¹ and 0.000134 s⁻¹.
B4 was tested, and the koff was 5.72e-05 s⁻¹ and 4.92e-05 s⁻¹ and 8.37e-05 s⁻¹.
For B5, the koff was 0.000186 s⁻¹ and 0.000121 s⁻¹ and 0.000138 s⁻¹.

For B1, the kon was 8.08e+06 M⁻¹ s⁻¹ and 9.99e+06 M⁻¹ s⁻¹ and 1.12e+07 M⁻¹ s⁻¹.
For B2, the kon was 1.2e+07 M⁻¹ s⁻¹ (2×) and 1.3e+07 M⁻¹ s⁻¹.
For B3, the kon was 1.3e+07 M⁻¹ s⁻¹ (2×) and 1.1e+07 M⁻¹ s⁻¹.
For B4, the kon was 8.64e+06 M⁻¹ s⁻¹ and 6.25e+06 M⁻¹ s⁻¹ and 7.69e+06 M⁻¹ s⁻¹.
B5 was tested, and the kon was 1.4e+07 M⁻¹ s⁻¹ and 8.64e+06 M⁻¹ s⁻¹ and 7.57e+06 M⁻¹ s⁻¹.

Compared with B2, B3 is lower in “Ratio (variant antibody KD/burosumab KD)” value: 3 for the first, 2 for the second.

For B6, the “Ratio (variant antibody KD/burosumab KD)” value was 5.

B6 was tested, and the Kd was 4.07 pM.

B6 was tested, and the “SA (surface activity)” value was 93.9%.

With B6 the koff was 6.25e-05 s⁻¹.

Work on B6 yielded a kon of 1.53e+07 M⁻¹ s⁻¹.

Target: T2, cynomolgus monkey (Macaca fascicularis) …
Experiment: SPR, antibody captured on hIgG chip, cynoFGF23(R179Q) analyte, single cycle kinetics
Protocol: Binding kinetics of 13 antibody variants shown in Table 19 were characterized against cynomolgus monkey (Macaca fascicularis) FGF23 (R179Q) (i.e., “cynoFGF23”) (SEQ ID NO: 372). Antibody variants were expressed at small scale (3 ml) and screened by SPR analysis at a single concentration (100 nM). Experimental setup of SPR analysis for CRC: SPR device—8K+; chip preparation—CM5 hIgG chip: channels—1-8; immobilization concentration—1.5 ug/ml; immobilization method—capture; flow rate—5 μl/min; contact time—60 s; running buffer—1×HBS-EP+pH 7.4; temperature—20° C.: flow rate—50 μl/min; association time—120 s; dissociation time—1800 s; antigen—cynoFGF23(R179Q): top concentration—0.1 μM, 9-pt 3-fold Single Cycle Kinetics.

Compared with B1, B2 is higher in “KD ratio” value: 2 for the first, 3 for the second.

Compared with B3, B4 is higher in “KD ratio” value: 1 for the first, 3 for the second.

Going from B5 to B6, the “KD ratio” value rises from 1 to 9.

B1 and B2 are within 1.5-fold of each other in Kd: 10.1 pM for the first, 6.93 pM for the second.

First: B3
Second: B4
The Kd of the first is 3.2-fold higher: 22.9 pM for the first, 7.16 pM for the second. The second binds more tightly here.

First: B5
Second: B6
The Kd of the first is 6.2-fold higher: 16 pM for the first, 2.57 pM for the second. The second binds more tightly here.
